± gives the standard error. Fewer inactive variants are shown than the library holds.
B1: glmS ribozyme (parent)
chain: AUAAAAGCGCCAGAACUACAGAAAUGUAGUUGACGAGGAGGAGGUUUAUCGAAUUUUCGGCGGAUGCCUCCAAA

What was measured:
Settings in all cases: with glucosamine-6-phosphate
glucosamine-6-phosphate [1] = variants of: B1; assay: self-cleavage kobs at 640 uM GlcN6P; higher = faster cleavage; RNA array
In short: (§1)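 Glucosamine-6-phosphate in HEPES/KCl/Mg(OAc)2 buffer, at 40 μM to 10 mM, was flowed over barcoded ribozyme variants transcribed in situ by E. coli RNA polymerase on sequenced MiSeq chips. Tracking was through a hybridised Cy3 probe at 37 °C. kobs, kcat and KM came from exponential decay fits and weighted Michaelis–Menten fits of normalised per-tile medians.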

glucosamine-6-phosphate [2] = variants of: B1; assay: self-cleavage kobs at 2500 uM GlcN6P; higher = faster cleavage; RNA array
In short: as §1

glucosamine-6-phosphate [3] = variants of: B1; assay: self-cleavage kobs at 10000 uM GlcN6P; higher = faster cleavage; RNA array
In short: as §1

Variant	self-cleavage kobs at 640 uM GlcN6P (glucosamine-6-phosphate [1])	self-cleavage kobs at 2500 uM GlcN6P (glucosamine-6-phosphate [2])	self-cleavage kobs at 10000 uM GlcN6P (glucosamine-6-phosphate [3])
C10U C58G C67A	0.000107 ± 3.8e-05 s⁻¹		
A12U C34G G51U U57A U65G	< 1e-05 s⁻¹		
A12C G26A G51U A53G C68G	0.000191 ± 5.2e-05 s⁻¹	0.000139 ± 4.6e-05 s⁻¹	
G9U G35C A42U U45A C70A	< 1e-05 s⁻¹		
C10U U47G G51U U57C C58G A64U	< 1e-05 s⁻¹		
C10U G35C G62C	< 1e-05 s⁻¹	< 1e-05 s⁻¹	
A12G G29A A36G U49C U57G C70A	< 1e-05 s⁻¹		
A12U A15U C68G	8.06e-05 ± 2.7e-05 s⁻¹		
C11G U45C U46C C61U	< 1e-05 s⁻¹	< 1e-05 s⁻¹	
C10U G32A U49A	< 1e-05 s⁻¹		
C11U G29U A52C	< 1e-05 s⁻¹		
A12C A14C A48U G60A	< 1e-05 s⁻¹		
C10U G38U U57G C61G G66U	0.000307 ± 9.3e-05 s⁻¹		
C11U G41C U54G G59C	< 1e-05 s⁻¹		
C11G A14U A36U U46A C61G G63A	< 1e-05 s⁻¹	< 1e-05 s⁻¹	
A12C G32C U57C C58U	< 1e-05 s⁻¹	< 1e-05 s⁻¹	
A12C G32A U54G	2.31e-05 ± 1.1e-05 s⁻¹	3.03e-05 ± 9.9e-06 s⁻¹	0.00014 ± 2.3e-05 s⁻¹
G9C C10G A14G G41U A64C	< 1e-05 s⁻¹	< 1e-05 s⁻¹	
C10A U47G	< 1e-05 s⁻¹	< 1e-05 s⁻¹	
A12C G44U	9.03e-05 ± 1.7e-05 s⁻¹	8.38e-05 ± 2.6e-05 s⁻¹	0.000382 ± 5.4e-05 s⁻¹
G13A U45A U49A	< 1e-05 s⁻¹	< 1e-05 s⁻¹	
C11G A14G C34A G41U U49C	< 1e-05 s⁻¹		
C10A C67G C70A	0.000293 ± 9.2e-05 s⁻¹		

Variant	self-cleavage kobs at 640 uM GlcN6P (glucosamine-6-phosphate [1])	self-cleavage kobs at 2500 uM GlcN6P (glucosamine-6-phosphate [2])	self-cleavage kobs at 10000 uM GlcN6P (glucosamine-6-phosphate [3])
C10A A39U A52G	< 1e-05 s⁻¹	< 1e-05 s⁻¹	< 1e-05 s⁻¹
C11U C67A C71U	4.57e-05 ± 1.8e-05 s⁻¹	5.18e-05 ± 1.8e-05 s⁻¹	
G9C A53U C70A	< 1e-05 s⁻¹		
C10G G13C A39G	< 1e-05 s⁻¹	< 1e-05 s⁻¹	
G9U C10G G13C A48C C50U	< 1e-05 s⁻¹	< 1e-05 s⁻¹	
C11G G35C A52U	< 1e-05 s⁻¹		
C10U C50G C68U C71A	9.29e-05 ± 2.6e-05 s⁻¹	0.000111 ± 2.9e-05 s⁻¹	
C11U A53U C70G	0.000189 ± 5.3e-05 s⁻¹		
A12U A33G A48C	< 1e-05 s⁻¹	< 1e-05 s⁻¹	
C11G A39C	< 1e-05 s⁻¹	< 1e-05 s⁻¹	< 1e-05 s⁻¹
C11U G29U U54A	0.000113 ± 2.1e-05 s⁻¹	0.000171 ± 4.4e-05 s⁻¹	0.000577 ± 0.00014 s⁻¹
C11A A14C A52U	< 1e-05 s⁻¹		
C10A C16U G35A	< 1e-05 s⁻¹	< 1e-05 s⁻¹	
C11A A15G G29A	< 1e-05 s⁻¹		
C10G A15C	< 1e-05 s⁻¹		< 1e-05 s⁻¹
C10U G21U G62A	< 1e-05 s⁻¹		< 1e-05 s⁻¹
A12U C67G C70U	0.000172 ± 3.8e-05 s⁻¹	0.000623 ± 0.00017 s⁻¹	
A12G A39U A42C	8.45e-05 ± 2.4e-05 s⁻¹	0.000119 ± 2.7e-05 s⁻¹	
C10A A33G U45C G66A C70U	< 1e-05 s⁻¹	< 1e-05 s⁻¹	
G9C U30A U49C U56G	< 1e-05 s⁻¹		
G9U U47A	< 1e-05 s⁻¹	< 1e-05 s⁻¹	
A12U A48C	0.000142 ± 2.1e-05 s⁻¹	0.000341 ± 5.1e-05 s⁻¹	
G9U C19A G62U G63U	< 1e-05 s⁻¹		

Variant	self-cleavage kobs at 640 uM GlcN6P (glucosamine-6-phosphate [1])	self-cleavage kobs at 2500 uM GlcN6P (glucosamine-6-phosphate [2])	self-cleavage kobs at 10000 uM GlcN6P (glucosamine-6-phosphate [3])
C10A A36C U46A	< 1e-05 s⁻¹	< 1e-05 s⁻¹	< 1e-05 s⁻¹
G9C A15C G32U G40C G66C	< 1e-05 s⁻¹		
G13C A15C C61U A64U C67A	< 1e-05 s⁻¹		
A12C G13U A36U	< 1e-05 s⁻¹	< 1e-05 s⁻¹	
A12U C67G C71A	< 1e-05 s⁻¹		
C11U U30C G43A	< 1e-05 s⁻¹		
C11U G41A G60U G63U C70U	< 1e-05 s⁻¹	< 1e-05 s⁻¹	
C10U G13C A15U C16U C50G	0.000145 ± 6.3e-05 s⁻¹	0.000146 ± 5.6e-05 s⁻¹	
A12G C34U	< 1e-05 s⁻¹		< 1e-05 s⁻¹
C10A A36U G62A	< 1e-05 s⁻¹		
A12G A15C G40U	< 1e-05 s⁻¹		
C10A U54G U65C	< 1e-05 s⁻¹		
G9A G40C G44A G59U	< 1e-05 s⁻¹		
C10G A12U U56G C71U	< 1e-05 s⁻¹		
C10A G51C A52U C70U	< 1e-05 s⁻¹		
A12G A39C G41U U47A A48U C61U A64U	< 1e-05 s⁻¹	< 1e-05 s⁻¹	
G13A G59A G62A	< 1e-05 s⁻¹		
C11A A53G G63A	< 1e-05 s⁻¹		
C11U A42U U55G G63U C68U	< 1e-05 s⁻¹	< 1e-05 s⁻¹	
A12G G43A U46G U69G	< 1e-05 s⁻¹	< 1e-05 s⁻¹	
C10U A33G U54A	< 1e-05 s⁻¹		
C11U A33U A53C	< 1e-05 s⁻¹		
C11U A48U G66U	< 1e-05 s⁻¹		

Variant	self-cleavage kobs at 640 uM GlcN6P (glucosamine-6-phosphate [1])	self-cleavage kobs at 2500 uM GlcN6P (glucosamine-6-phosphate [2])	self-cleavage kobs at 10000 uM GlcN6P (glucosamine-6-phosphate [3])
C11U A12G C67A	8.5e-05 ± 2e-05 s⁻¹	0.000771 ± 0.00025 s⁻¹	
G13A A52C C58G U69G	4.44e-05 ± 2e-05 s⁻¹		
G9U U45G A52G	< 1e-05 s⁻¹		
G9C G29C A52U C70U	< 1e-05 s⁻¹	< 1e-05 s⁻¹	< 1e-05 s⁻¹
A12C U47C G60U	< 1e-05 s⁻¹		
G9A G32C C61U	< 1e-05 s⁻¹		< 1e-05 s⁻¹
G13A G32C G43C C68G	7.7e-05 ± 2.2e-05 s⁻¹	0.000154 ± 5e-05 s⁻¹	
C11U G13U A14G G38C	< 1e-05 s⁻¹		
G9A G35A C58U C71U	< 1e-05 s⁻¹		
C10G A53U U57A	< 1e-05 s⁻¹		
A12G G29U G37C	< 1e-05 s⁻¹	< 1e-05 s⁻¹	
C11U G35U G44A	< 1e-05 s⁻¹	< 1e-05 s⁻¹	
A12U A48G U49G	6.79e-05 ± 3.2e-05 s⁻¹		
C11A A14C G44A G66U	< 1e-05 s⁻¹	< 1e-05 s⁻¹	
A12U U47G A52U C61U	< 1e-05 s⁻¹		
G13A G44C U54G	< 1e-05 s⁻¹		
G9U G29C G41A	< 1e-05 s⁻¹	< 1e-05 s⁻¹	< 1e-05 s⁻¹
C10U A36U G41A	< 1e-05 s⁻¹	< 1e-05 s⁻¹	
G9A U47G U49G	< 1e-05 s⁻¹		
C10G C11A A39U	< 1e-05 s⁻¹	< 1e-05 s⁻¹	
G13C G37A G62A	< 1e-05 s⁻¹	< 1e-05 s⁻¹	< 1e-05 s⁻¹
A12C A15G A39C	5.62e-05 ± 1.6e-05 s⁻¹	0.000163 ± 4.9e-05 s⁻¹	
C11A A39G	0.000101 ± 2.7e-05 s⁻¹	0.000121 ± 2.7e-05 s⁻¹	0.000422 ± 7.8e-05 s⁻¹

Variant	self-cleavage kobs at 640 uM GlcN6P (glucosamine-6-phosphate [1])	self-cleavage kobs at 2500 uM GlcN6P (glucosamine-6-phosphate [2])	self-cleavage kobs at 10000 uM GlcN6P (glucosamine-6-phosphate [3])
A12U A15G U47G	0.00207 ± 0.00042 s⁻¹		
G9A U45C A53U G60C	< 1e-05 s⁻¹		
C10A C16A C68A	0.000126 ± 4.7e-05 s⁻¹		
C10U A12C G60U	< 1e-05 s⁻¹		
G9U U56A G63U A64U	< 1e-05 s⁻¹		
G9A G37A U46C	< 1e-05 s⁻¹		
G13A C16G A36C G41U A52U	< 1e-05 s⁻¹		
C10A G43C A53U	< 1e-05 s⁻¹	< 1e-05 s⁻¹	
G9U G35A G44U A53C C71G	< 1e-05 s⁻¹	< 1e-05 s⁻¹	
G9U G32A G43C	< 1e-05 s⁻¹		
C10U G38U U69A	8.22e-05 ± 2.4e-05 s⁻¹		
G13C A33G G40U U49G G63A	< 1e-05 s⁻¹		
C11G C50A A52G	< 1e-05 s⁻¹		
C11U A48G C68U	< 1e-05 s⁻¹		
G9U G32C C34G C58U C68G	0.000182 ± 7.9e-05 s⁻¹		
C11U A36C A39G C67G	< 1e-05 s⁻¹	< 1e-05 s⁻¹	
A12G U47G C50A C68G	0.000111 ± 4.4e-05 s⁻¹		
A12U G35C C70U	< 1e-05 s⁻¹	< 1e-05 s⁻¹	
A12U G13U G32U A64G	< 1e-05 s⁻¹		
C10U G60A C67A	< 1e-05 s⁻¹		
G9C A15C A64C C68G	< 1e-05 s⁻¹		
C10U U45C C68A	< 1e-05 s⁻¹		
C11A G32A G66U	< 1e-05 s⁻¹		

Variant	self-cleavage kobs at 640 uM GlcN6P (glucosamine-6-phosphate [1])	self-cleavage kobs at 2500 uM GlcN6P (glucosamine-6-phosphate [2])	self-cleavage kobs at 10000 uM GlcN6P (glucosamine-6-phosphate [3])
G13C A14C C71U	4.16e-05 ± 1.1e-05 s⁻¹	0.000105 ± 1.7e-05 s⁻¹	
G13C A39C C61A C70U	< 1e-05 s⁻¹		
C11A U54G C67G C71A	0.0001 ± 4e-05 s⁻¹	0.000224 ± 8.9e-05 s⁻¹	
G9U C61A C70G	4.55e-05 ± 2.1e-05 s⁻¹		
G9U A15C A42U	< 1e-05 s⁻¹		
G9C C70G	< 1e-05 s⁻¹		< 1e-05 s⁻¹
C10A C11G G35C G44C	< 1e-05 s⁻¹	< 1e-05 s⁻¹	
C10A G62U C70G	9.92e-05 ± 3.7e-05 s⁻¹	0.000143 ± 4.8e-05 s⁻¹	
G9U A14C A53U G62A C67G	< 1e-05 s⁻¹	< 1e-05 s⁻¹	
C11A U46C	< 1e-05 s⁻¹		
C10U G32C G35A	< 1e-05 s⁻¹	< 1e-05 s⁻¹	
C10U G43U U45G	< 1e-05 s⁻¹	< 1e-05 s⁻¹	
C11G C70G	9.08e-05 ± 1.6e-05 s⁻¹	5.33e-05 ± 1.4e-05 s⁻¹	2.25e-05 ± 9.6e-06 s⁻¹
A12U U65C C70U	0.000322 ± 8.6e-05 s⁻¹		
C10G C11A U31C G35C C70G	0.00013 ± 6.3e-05 s⁻¹		
C11A G38U A39U G60A	< 1e-05 s⁻¹	< 1e-05 s⁻¹	
A12U G38C A39C	< 1e-05 s⁻¹		< 1e-05 s⁻¹
G9U A14C A64U C68A	< 1e-05 s⁻¹	< 1e-05 s⁻¹	
C10A G41C A48U	< 1e-05 s⁻¹	< 1e-05 s⁻¹	

Source: the supplement of paper PMC7125110
